Experimental data reported in publication PMC11150392, “Structure and mechanism of the K^+/H^+ exchanger KefC” (Nature Communications, 2024).

B1: KefC WT*-GFP fusion [Escherichia coli] / itself (parent)
chain: MDSHTLIQALIYLGSAALIVPIAVRLGLGSVLGYLIAGCIIGPWGLRLVTDAESILHFAEIGVVLMLFIIGLELDPQRLWKLRAAVFGCGALQMVICGGLLGLFCMLLGLRWQVAELIGMTLALSSTAIAMQAMNERNLMVTQMGRSAFAVLLFQDIAAIPLVAMIPLLATSSASTTMGAFALSALKVAGALVLVVLLGRYVTRPALRFVARSGLREVFSAVALFLVFGFGLLLEEVGLSMAMGAFLAGVLLASSEYRHALESDIEPFKGLLLGLFFIGVGMSIDFGTLLENPLRIVILLLGFLIIKIAMLWLIARPLQVPNKQRRWFAVLLGQGSEFAFVVFGAAQMANVLEPEWAKSLTLAVALSMAATPILLVILNRLEQSSTEEAREADEIDEEQPRVIIAGFGRFGQITGRLLLSSGVKMVVLDHDPDHIETLRKFGMKVFYGDATRMDLLESAGAAKAEVLINAIDDPQTNLQLTEMVKEHFPHLQIIARARDVDHYIRLRQAGVEKPERETFEGALKTGRLALESLGLGPYEARERADVFRRFNIQMVEEMAM

Variants of: B1
Assay: FSEC of DDM solubilized membranes after heating
Design: unit not given here
Settings: with itself; 10 mins at 60 °C; 1 mM AMP; read off a plot

screen value | Variant
10 | chain 1 K81A
5.5 | chain 1 E465A
6.5 | chain 1 H259A
2.5 | chain 1 R543A
74 | chain 1 R401A
89 | chain 1 N135A
86 | chain 1 R146A
